The data set can be described thus: protein stability index of a GFP-peptide fusion (GPS, HEK-293T) (PSI 1-6); higher = more stable. The note with it: c terminus: a fixed tail appended.

± gives the standard deviation.
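Also: 24-mer peptide tiles fused after GFP, lentivirally expressed, FACS-sorted into six equal bins by GFP/DsRed ratio, decoded by Illumina sequencing, PSI is the read-weighted mean bin number.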

For IRDIRRRGKNKMAAQNCRKRKLDT [NFE2L1], the protein stability index was found to be 3.84 ± 0.29 (treatment: DMSO) and 3.94 ± 0.32 (treatment: MLN4924 1 uM, 8 h).
Consider IRPVAGYLSPRDFLSGLAFRVFHC [TPH1], for which the protein stability index by setting is: (treatment: DMSO) 2.1 ± 0.13; (treatment: MLN4924 1 uM, 8 h) 2.12 ± 0.1.
Consider ISKNKKKASNSIISCFNNAPPAKL [FAN1], for which the protein stability index was 3.36 ± 0.21 (treatment: DMSO) and 2.79 ± 0.31 (treatment: MLN4924 1 uM, 8 h).
The like results for ISLALFVLPKPKVISCLEQGEEPW [ZNF75A] were, in that order, 3.21 ± 0.49 and 2.9 ± 0.56.
The like results for ISLTCVSVAFAVAWFLPMPQKSLF [SLC19A2] were, in that order, 3.15 ± 0.18 and 3.19 ± 0.17.
With ISPRGAGYTFGQDISETFNHANGL [PPP2CA], the protein stability index came out at 3.17 ± 0.26 (treatment: DMSO) and 3.23 ± 0.41 (treatment: MLN4924 1 uM, 8 h).
The corresponding values for ISRALLSDVVPEKERPLVIGHFNT [MFSD9] are 3.04 ± 0.45 and 2.99 ± 0.31.
As to ITATSLLGTRESDTEVITVEKSSP [BCL2L13], the protein stability index (treatment: DMSO) stood at 4.91 ± 0.19 and the protein stability index (treatment: MLN4924 1 uM, 8 h) came out at 5.01 ± 0.16.
The like results for ITSSIPDTERLDDFHLSIHSDMAA [DVL3] were, in that order, 4.08 ± 0.22 and 4.3 ± 0.17.
On to ITTVSKAKGASLFTCDLQHTETGE [VPS39], for which the protein stability index (treatment: DMSO) worked out at 4.06 ± 0.25 and the protein stability index (treatment: MLN4924 1 uM, 8 h) was 3.99 ± 0.21.
The like results for IVITGDADIDHDQALAQAIKEAKE [EPB41L3] were, in that order, 2.85 ± 0.58 and 3.45 ± 0.48.
The corresponding values for IVKQMKIIHEAGYSEEECKQYKAV [GNAI1] are 3.13 ± 0.22 and 3.77 ± 0.23.
As for IVKQQDPLVYKAIQQGINAVNQEA [ACSBG2], the protein stability index is, setting by setting: (treatment: DMSO) 3.75 ± 0.11; (treatment: MLN4924 1 uM, 8 h) 3.82 ± 0.12.
The corresponding values for IYAMKILRKSDMLEKEQVAHIRAE [STK38L] are 2.33 ± 0.26 and 2.48 ± 0.22.
The corresponding values for IYTEFPDETLRSGELLNMIVAVID [INTS3] are 2.14 ± 0.29 and 2.47 ± 0.099.
The corresponding values for KAEGGEEDSLGCLTADTKEVTASQ [IRX6] are 5.49 ± 0.22 and 5.48 ± 0.24.
KAGQPESRALALFDIQKIMQEKNP [ZNF8]: the protein stability index stood at 4.06 ± 0.36 (treatment: DMSO) and 4.26 ± 0.12 (treatment: MLN4924 1 uM, 8 h).
The corresponding values for KALTTLCDLADRELVVIIGWAKHI [ESRRG] are 2.83 ± 0.38 and 2.79 ± 0.62.
Turning to KAQAKVGSLDNAHHVPGGGNVKID [MAP2], the protein stability index reads like this: (treatment: DMSO) 4.85 ± 0.12; (treatment: MLN4924 1 uM, 8 h) 4.87 ± 0.34.
The corresponding values for KCAEVIIPLLSSVNVSDRGGRTAL [ANKRD44] are 2.38 ± 0.37 and 2.37 ± 0.16.
The like results for KDGKLLAATLLLALLSCCLTVVSF [TNFSF13B] were, in that order, 3.26 ± 0.39 and 3.35 ± 0.32.
The like results for KDIAGEFKEQLQALIPYVLNPSKL [ATL3] were, in that order, 2.19 ± 0.11 and 2.32 ± 0.18.
As for KDPRQWTETHVRDWVMWAVNEFSL [ETS1], the protein stability index is 2.67 ± 1.1 (treatment: DMSO) and 2.23 ± 0.34 (treatment: MLN4924 1 uM, 8 h).
The like results for KDQQTFARSVGLKWRKVGRSLQRG [TRADD] were, in that order, 3.27 ± 0.34 and 3.49 ± 0.3.
The like results for KEAGLSQSHDDLSNATATPSVRKK [C2CD2L] were, in that order, 5.44 ± 0.19 and 5.53 ± 0.28.
The corresponding values for KEEVRAALEQREQDAVDQVKVIMD [TRIM29] are 5.23 ± 0.36 and 5.39 ± 0.13.
As for KENEMMKSHVMDQAINNAINYLGA [IKZF1], the protein stability index turned out to be 3.24 ± 0.089 (treatment: DMSO) and 2.87 ± 0.3 (treatment: MLN4924 1 uM, 8 h).
As for KERLKPAHIHLQQLTCFSITCSST [KRT34], the protein stability index runs as follows: (treatment: DMSO) 2.1 ± 0.34; (treatment: MLN4924 1 uM, 8 h) 2.49 ± 0.22.
Turning to KGFIQKGNLNIHQRTHTGEKPYGC [ZNF649], the protein stability index runs as follows: (treatment: DMSO) 3.67 ± 0.14; (treatment: MLN4924 1 uM, 8 h) 3.68 ± 0.2.
The corresponding values for KGKLFTWNILKTIALGQMLSLCIC [SLC35F2] are 2.62 ± 0.89 and 2.57 ± 0.57.
The corresponding values for KGNREDSARMSAGLPGPEAARSGD [PLEKHN1] are 5.41 ± 0.39 and 5.39 ± 0.41.
For KGSPDVSASSDEPYARIQQSRRQC [SMIM2], the protein stability index runs as follows: (treatment: DMSO) 4.74 ± 0.18; (treatment: MLN4924 1 uM, 8 h) 5.02 ± 0.2.
Turning to KGTILYLQKDEYRPDKALSEGDLK [PSD2], the protein stability index came out at 3.99 ± 0.21 (treatment: DMSO) and 4.04 ± 0.18 (treatment: MLN4924 1 uM, 8 h).
The corresponding values for KHKRQMQDPQLHSPFSGSLHAPPA [VENTX] are 3.98 ± 0.28 and 3.83 ± 0.25.
The corresponding values for KIIFRVGLVLLKHALGSPEKVKAC [TBC1D10A] are 2.77 ± 0.43 and 2.76 ± 0.19.
For KIRKIHTQRQYKEDESQSEEENDY [CEP70], the protein stability index is 5.14 ± 0.21 (treatment: DMSO) and 5.16 ± 0.18 (treatment: MLN4924 1 uM, 8 h).

Values taken from the supplement of paper PMC10567573.
